Results published in patent US20240343811A1 (SHANDONG SIMCERE BIOPHARMACUTICAL, published 2024).

T1: Human CD16b (NA2)-his (human)
T1 construct: entry holds ECD, linker, His tag and AVI tag
T1 chain: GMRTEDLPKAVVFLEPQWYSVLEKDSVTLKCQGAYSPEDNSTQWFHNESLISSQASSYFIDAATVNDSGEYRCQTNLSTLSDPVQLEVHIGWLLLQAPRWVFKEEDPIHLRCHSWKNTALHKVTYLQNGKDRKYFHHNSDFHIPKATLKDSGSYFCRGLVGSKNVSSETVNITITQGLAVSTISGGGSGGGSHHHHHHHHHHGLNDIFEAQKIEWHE

T2: Cynomolgus monkey CD16-his (cynomolgus monkey)
T2 construct: entry holds ECD, AVI tag, linker and His tag; also called cyno CD16-ECD his; Cyno CD16
T2 chain: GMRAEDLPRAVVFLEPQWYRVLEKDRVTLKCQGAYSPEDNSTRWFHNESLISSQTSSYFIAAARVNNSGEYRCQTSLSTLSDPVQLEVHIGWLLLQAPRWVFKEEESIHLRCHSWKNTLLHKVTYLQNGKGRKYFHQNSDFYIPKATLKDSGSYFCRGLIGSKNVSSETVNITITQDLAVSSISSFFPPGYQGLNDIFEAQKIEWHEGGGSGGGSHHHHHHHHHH


Columns and labels:
Human CD16b (NA2)-his = biological target: T1, Human CD16b (NA2)-his; assay: SPR (Biacore), antibody captured on Protein A
Method in brief: (§1)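 Protein A–captured antibody was probed with CD16-his ECD in HBS-EP+ at 25 °C: five 2-fold dilutions from 200 nM, 240 s at 30 μL/min, dissociation up to 600 s. Glycine pH 1.5 regenerated the chip. Apparent KD came from a double-referenced 1:1 Langmuir fit.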

[1] = biological target: T2, Cynomolgus monkey CD16-his; assay: SPR (Biacore), antibody captured on Protein A
Method in brief: as §1

[2] = biological target: T3, cynomolgus monkey CD16, full length, on FlpinCHO cells (cynomolgus monkey, UniProt Q8SPW2 17-254); assay: FACS on FlpinCHO cells
T3 construct: also called FlpinCHO-cyno CD16; Flipin CHO-cyno CD16
Method in brief: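 FlpinCHO cells expressing full-length cynomolgus CD16, blocked in PBS/2% BSA at 2×10⁶ cells/ml, incubated with antibody at various concentrations 1 h on ice. Flow cytometry MFI fitted to give EC50.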

[3] = biological target: human CD16a (158V), full length, on cells (human, UniProt P08637 17-254); assay: cell-based or functional assay
Chain of human CD16a (158V), full length, on cells (P08637 17-254 F176V limits assumed): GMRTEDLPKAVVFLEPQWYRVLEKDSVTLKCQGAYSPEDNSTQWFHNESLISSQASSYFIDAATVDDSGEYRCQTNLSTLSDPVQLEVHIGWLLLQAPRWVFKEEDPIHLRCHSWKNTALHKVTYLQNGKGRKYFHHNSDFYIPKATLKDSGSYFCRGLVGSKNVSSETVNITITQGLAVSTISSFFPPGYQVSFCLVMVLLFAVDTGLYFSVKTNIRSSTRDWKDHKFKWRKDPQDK

T3 sequence (Q8SPW2 other isoform, or with tags, fused parts or gaps limits assumed): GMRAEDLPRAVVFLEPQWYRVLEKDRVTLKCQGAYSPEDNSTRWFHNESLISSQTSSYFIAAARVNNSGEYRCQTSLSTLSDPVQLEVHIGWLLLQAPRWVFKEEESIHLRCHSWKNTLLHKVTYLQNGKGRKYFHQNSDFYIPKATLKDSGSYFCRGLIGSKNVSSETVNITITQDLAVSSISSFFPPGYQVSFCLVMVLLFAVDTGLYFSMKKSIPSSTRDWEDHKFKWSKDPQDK

Kd (Human CD16b (NA2)-his) | koff (Human CD16b (NA2)-his) | kon (Human CD16b (NA2)-his) | Kd [1] | koff [1] | kon [1] | EC50 [2] | Maximum mean fluorescence intensity [2] | EC50, activation activity for Jurkat cell [3] | Maximum fluorescence value [3] | Binder
4920 nM | 0.2 s⁻¹ | 40700 M⁻¹ s⁻¹ | 23.6 nM | 0.015 s⁻¹ | 633000 M⁻¹ s⁻¹ | – | – | – | – | VHH11 VHH-Fc antibody (Fc fusion) EVQVVESGGGLAQAGGSLRLSCAVSGITFSSYAMGWYRQDPGKQRELVAAINRFGLTNYADSVKGRFTISRDNAKNTVYLQMTSLKPEDTAVYYCNTGGVYSHPNYYTGTYWGQGTQVTVSSEPKSSDKTHTCPPCPAPEFEGGPSVFLFPPKPKDTLMISRTPEVTCVVVAVSHEDPEVKFNWYVDGVEVHNAKTKPREEQYNSTYRVVSVLTVLHQDWLNGKEYKCKVSNKALPAPIEKTISKAKGQPREPQVYTLPPSREEMTKNQVSLTCLVKGFYPSDIAVEWESNGQPENNYKTTPPVLDSDGSFFLYSKLTVDKSRWQQGNVFSCSVMHEALHNHYTQKSLSLSPGK
1050 nM | 0.0998 s⁻¹ | 95100 M⁻¹ s⁻¹ | 8.51 nM | 0.0101 s⁻¹ | 1.18e+06 M⁻¹ s⁻¹ | 0.35 nM | 18400 | 0.01 nM | 142000 | VHH12 VHH-Fc antibody (Fc fusion) QVQLVESGGGLVQAGGSLRLSCAASGITFSSYAMGWYRQAPGKQRELVAAINRFGLTNYADFVKGRFTISRVNAKNTVYLQMTSLKPEDTAVYYCNTGGVYSHPDYYTGTYWGQGTQVTVSSEPKSSDKTHTCPPCPAPEFEGGPSVFLFPPKPKDTLMISRTPEVTCVVVAVSHEDPEVKFNWYVDGVEVHNAKTKPREEQYNSTYRVVSVLTVLHQDWLNGKEYKCKVSNKALPAPIEKTISKAKGQPREPQVYTLPPSREEMTKNQVSLTCLVKGFYPSDIAVEWESNGQPENNYKTTPPVLDSDGSFFLYSKLTVDKSRWQQGNVFSCSVMHEALHNHYTQKSLSLSPGK
– | – | – | – | – | – | – | – | 0.02 nM | 168000 | VHH06 VHH-Fc antibody (Fc fusion) EVQLVESGGGLVQAGGSLRLSCVASGSTWTTYAVRWYRQAPGKQREWVAFISVDGSTNYPDSVKGRFIVSRDNAKNTVYLQMNSLKPEDTADYICRVGGQYWGQGTQVTVSSEPKSSDKTHTCPPCPAPEFEGGPSVFLFPPKPKDTLMISRTPEVTCVVVAVSHEDPEVKFNWYVDGVEVHNAKTKPREEQYNSTYRVVSVLTVLHQDWLNGKEYKCKVSNKALPAPIEKTISKAKGQPREPQVYTLPPSREEMTKNQVSLTCLVKGFYPSDIAVEWESNGQPENNYKTTPPVLDSDGSFFLYSKLTVDKSRWQQGNVFSCSVMHEALHNHYTQKSLSLSPGK
